Laboratory results: the Immune Epitope Database (IEDB)
pKd: −log10 of the molar value.

Key:
HLA-A*69:01 = assay: IEDB peptide-MHC binding, purified MHC/direct/fluorescence; filed as Kd, often an IC50 or EC50 that approximates it; ≥ and ≤ were set here for values at or beyond the usual limits of such assays
HLA-A*26:01 = assay: as above; settings: source organism: Ravn virus - Ravn, Kenya, 1987
HLA-B*39:01 = assay: as above; settings: source organism: Marburg virus - Musoke, Kenya, 1980
HLA-A*68:02 = assay: as above; settings: source organism: Marburg virus - Musoke, Kenya, 1980
HLA-B*18:01 = assay: as above
HLA-A*01:01 = assay: as above
HLA-B*27:05 = assay: as above
HLA-B*15:09 = assay: as above; settings: source organism: Ravn virus - Ravn, Kenya, 1987
HLA-B*08:02 = assay: as above
HLA-A*02:01 = assay: as above
HLA-B*15:17 = assay: as above; settings: source organism: Marburg virus - Musoke, Kenya, 1980
HLA-B*15:01 = assay: as above
HLA-B*08:01 = assay: as above
HLA-B*46:01 = assay: as above
HLA-B*58:01 = assay: as above
HLA-B*07:02 = assay: as above
HLA-B*57:01 = assay: as above
HLA-B*40:01 = assay: as above
HLA-B*48:01 [1] = assay: IEDB peptide-MHC binding, purified MHC/competitive/fluorescence; filed as Kd, often an IC50 or EC50 that approximates it; ≥ and ≤ were set here for values at or beyond the usual limits of such assays; settings: source organism: Orthomarburgvirus marburgense
HLA-A*26:02 = assay: as above; settings: source organism: Orthomarburgvirus marburgense
HLA-A*11:01 = assay: IEDB peptide-MHC binding, purified MHC/direct/fluorescence; filed as Kd, often an IC50 or EC50 that approximates it; ≥ and ≤ were set here for values at or beyond the usual limits of such assays; settings: source organism: Vibrio cholerae
HLA-B*48:01 [2] = assay: as above; settings: source organism: Vibrio cholerae
HLA-A*29:02 = assay: as above; settings: source organism: Vibrio cholerae
HLA-A*31:01 = assay: as above; settings: source organism: Vibrio cholerae
HLA-B*08:03 = assay: as above; settings: source organism: Vibrio cholerae
HLA-B*44:02 = assay: as above; settings: source organism: Vibrio cholerae
HLA-A*03:01 = assay: as above; settings: source organism: Vibrio cholerae
[3] = source organism: Marburg virus - Musoke, Kenya, 1980
[4] = source organism: Ravn virus - Ravn, Kenya, 1987
[5] = source organism: Vibrio cholerae

THYSGNIVH was tested, and the pKd (HLA-A*69:01; [3]) was no more than 4.70, the pKd (HLA-A*26:01) was no more than 4.70 and the pKd (HLA-B*39:01) was 7.56. The pKd (HLA-A*68:02) was no more than 4.70, the pKd (HLA-B*18:01; [3]) was no more than 4.70 and the pKd (HLA-A*01:01; [3]) was no more than 4.70. For the same sequence, the pKd (HLA-B*27:05; [3]) was no more than 4.70, the pKd (HLA-B*15:09) was 7.34 and the pKd (HLA-B*08:02; [4]) was no more than 4.70. The pKd (HLA-A*02:01; [3]) was no more than 4.70, the pKd (HLA-B*15:17) was no more than 4.70 and the pKd (HLA-B*15:01; [3]) was no more than 4.70. For the same sequence, the pKd (HLA-B*08:01; [4]) was no more than 4.70, the pKd (HLA-B*46:01; [3]) was no more than 4.70 and the pKd (HLA-B*58:01; [3]) was no more than 4.70. It also gave a pKd (HLA-B*07:02; [3]) of no more than 4.70, a pKd (HLA-B*57:01; [3]) of no more than 4.70 and a pKd (HLA-B*40:01; [3]) of no more than 4.70. The pKd (HLA-B*48:01 [1]) was no more than 4.70 and the pKd (HLA-A*26:02) was no more than 4.70.

Work on VLKLRFWLI yielded a pKd (HLA-A*69:01; [5]) of no more than 4.70, a pKd (HLA-B*18:01; [5]) of no more than 4.70 and a pKd (HLA-A*01:01; [5]) of no more than 4.70. It also gave a pKd (HLA-B*27:05; [5]) of no more than 4.70, a pKd (HLA-A*11:01) of no more than 4.70 and a pKd (HLA-B*08:02; [5]) of no more than 4.70. It also gave a pKd (HLA-B*48:01 [2]) of no more than 4.70, a pKd (HLA-A*02:01; [5]) of no more than 4.70 and a pKd (HLA-A*29:02) of no more than 4.70. The pKd (HLA-A*31:01) was no more than 4.70, the pKd (HLA-B*15:01; [5]) was no more than 4.70 and the pKd (HLA-B*08:01; [5]) was 7.47. For the same sequence, the pKd (HLA-B*46:01; [5]) was no more than 4.70, the pKd (HLA-B*58:01; [5]) was no more than 4.70 and the pKd (HLA-B*07:02; [5]) was no more than 4.70. For the same sequence, the pKd (HLA-B*08:03) was 6.73, the pKd (HLA-B*57:01; [5]) was no more than 4.70 and the pKd (HLA-B*44:02) was no more than 4.70. It also gave a pKd (HLA-B*40:01; [5]) of no more than 4.70 and a pKd (HLA-A*03:01) of no more than 4.70.
